According to publication PMC10858392 (Cell reports, 2023):

Assays:
Experiment in all cases: ELISA
ubiquitin (in-house) = ubiquitin (in-house) (Homo sapiens, UniProt P0CG47)
[1] = biological target: lysozyme from chicken egg white (Gallus gallus, UniProt P00698)
human insulin = human insulin (Homo sapiens, UniProt P01308)
[2] = biological target: albumin from human serum, low endotoxin (Homo sapiens, UniProt P02768)

Measured: binding result

Sequence of albumin from human serum, low endotoxin (P02768 25-609): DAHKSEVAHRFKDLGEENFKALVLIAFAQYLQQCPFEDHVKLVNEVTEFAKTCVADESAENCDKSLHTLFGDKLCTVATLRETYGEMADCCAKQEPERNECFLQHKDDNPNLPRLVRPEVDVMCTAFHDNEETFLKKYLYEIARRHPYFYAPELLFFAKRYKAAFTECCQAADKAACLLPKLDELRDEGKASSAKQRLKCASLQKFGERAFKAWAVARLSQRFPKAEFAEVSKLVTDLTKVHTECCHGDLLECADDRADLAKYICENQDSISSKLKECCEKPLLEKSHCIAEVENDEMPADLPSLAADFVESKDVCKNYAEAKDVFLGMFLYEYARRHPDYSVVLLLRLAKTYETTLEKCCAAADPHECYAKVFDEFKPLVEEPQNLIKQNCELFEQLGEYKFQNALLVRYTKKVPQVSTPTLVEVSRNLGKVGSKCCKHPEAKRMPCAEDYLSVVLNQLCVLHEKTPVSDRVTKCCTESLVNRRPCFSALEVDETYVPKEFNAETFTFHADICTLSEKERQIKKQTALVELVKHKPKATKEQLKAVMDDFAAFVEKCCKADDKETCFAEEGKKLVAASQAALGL
Sequence of lysozyme from chicken egg white (P00698 19-147): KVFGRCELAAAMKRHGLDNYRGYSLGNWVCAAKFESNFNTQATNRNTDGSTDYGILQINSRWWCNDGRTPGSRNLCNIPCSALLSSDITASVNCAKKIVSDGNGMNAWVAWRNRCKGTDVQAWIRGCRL
Sequence of human insulin (P01308 whole entry, looked up): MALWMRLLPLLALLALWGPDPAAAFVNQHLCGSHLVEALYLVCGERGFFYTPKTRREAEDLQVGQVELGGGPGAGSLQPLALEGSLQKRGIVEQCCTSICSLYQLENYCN

B1: 338E6 mAb (polyreactive mouse IgA monoclonal antibody, full-length) (antibody, V domains shown)
VH: EVKLEESGGDLVKPGGSLKLSCAASGFTFSSYGMSWVRQTPDKRLEWVATISSGGSYTYYPDSVKGRFTISRDNAKNTLYLQMSSLKSEDTAMYYCARRGFYFDYWGQGTTLTVSS
VL: ETTVTQSQKFMSTSVGDRVSVTCKASQNVGTNVAWYQQKPGQSPKALIYSASYRYSGVPDRFTGSGSGTDFTLTISNVQSEDLAEYFCQQYNSYPLTFGQGTKVEIK
binds: all assays above

B2: 43G10 mAb (polyreactive mouse IgA monoclonal antibody, full-length) (antibody, V domains shown)
VH: QVQLKQSGPGLVKPSQSLSLTCSVTGYSITSGFYWTWIRQFPGNKVEWMGYINYAGNNDYNPSLKDRISITRDTSKNQFFLKLNSVTSEDTATYYCTRGTGRIEYWGQGTSVTVSS
VL: DIKMTQSPSSLAVSVGEKVSMSCKSSQSLLYSYNQKNYLAWYQQAPGQSPKLLIYWASTRESGVPDRFTGSGSGTDFTLTISNVKTEDLAVYYCQQYHSHPLTFGQGTKVEIK
binds: all assays above
